B1: Mothers against decapentaplegic homolog 4 (Homo sapiens), Q13485 (parent)
chain: MDNMSITNTPTSNDACLSIVHSLMCHRQGGESETFAKRAIESLVKKLKEKKDELDSLITAITTNGAHPSKCVTIQRTLDGRLQVAGRKGFPHVIYARLWRWPDLHKNELKHVKYCQYAFDLKCDSVCVNPYHYERVVSPGIDLSGLTLQSNAPSSMMVKDEYVHDFEGQPSLSTEGHSIQTIQHPPSNRASTETYSTPALLAPSESNATSTANFPNIPVASTSQPASILGGSHSEGLLQIASGPQPGQQQNGFTGQPATYHHNSTTTWTGSRTAPYTPNLPHHQNGHLQHHPPMPPHPGHYWPVHNELAFQPPISNHPAPEYWCSIAYFEMDVQVGETFKVPSSCPIVTVDGYVDPSGGDRFCLGQLSNVHRTEAIERARLHIGKGVQLECKGEGDVWVRCLSDHAVFVQSYYLDREAGRAPGDAVHKIYPSAYIKVFDLRQCHRQMQQQAATAQAAAAAQAAAVAGNIPGPGSVGGIAPAISLSAAAGIGVDDLRRLCILRMSFVKGWGPDYPRQSIKETPCWIEIHLHRALQLLDEVLHTMPIADPQPLD
partner: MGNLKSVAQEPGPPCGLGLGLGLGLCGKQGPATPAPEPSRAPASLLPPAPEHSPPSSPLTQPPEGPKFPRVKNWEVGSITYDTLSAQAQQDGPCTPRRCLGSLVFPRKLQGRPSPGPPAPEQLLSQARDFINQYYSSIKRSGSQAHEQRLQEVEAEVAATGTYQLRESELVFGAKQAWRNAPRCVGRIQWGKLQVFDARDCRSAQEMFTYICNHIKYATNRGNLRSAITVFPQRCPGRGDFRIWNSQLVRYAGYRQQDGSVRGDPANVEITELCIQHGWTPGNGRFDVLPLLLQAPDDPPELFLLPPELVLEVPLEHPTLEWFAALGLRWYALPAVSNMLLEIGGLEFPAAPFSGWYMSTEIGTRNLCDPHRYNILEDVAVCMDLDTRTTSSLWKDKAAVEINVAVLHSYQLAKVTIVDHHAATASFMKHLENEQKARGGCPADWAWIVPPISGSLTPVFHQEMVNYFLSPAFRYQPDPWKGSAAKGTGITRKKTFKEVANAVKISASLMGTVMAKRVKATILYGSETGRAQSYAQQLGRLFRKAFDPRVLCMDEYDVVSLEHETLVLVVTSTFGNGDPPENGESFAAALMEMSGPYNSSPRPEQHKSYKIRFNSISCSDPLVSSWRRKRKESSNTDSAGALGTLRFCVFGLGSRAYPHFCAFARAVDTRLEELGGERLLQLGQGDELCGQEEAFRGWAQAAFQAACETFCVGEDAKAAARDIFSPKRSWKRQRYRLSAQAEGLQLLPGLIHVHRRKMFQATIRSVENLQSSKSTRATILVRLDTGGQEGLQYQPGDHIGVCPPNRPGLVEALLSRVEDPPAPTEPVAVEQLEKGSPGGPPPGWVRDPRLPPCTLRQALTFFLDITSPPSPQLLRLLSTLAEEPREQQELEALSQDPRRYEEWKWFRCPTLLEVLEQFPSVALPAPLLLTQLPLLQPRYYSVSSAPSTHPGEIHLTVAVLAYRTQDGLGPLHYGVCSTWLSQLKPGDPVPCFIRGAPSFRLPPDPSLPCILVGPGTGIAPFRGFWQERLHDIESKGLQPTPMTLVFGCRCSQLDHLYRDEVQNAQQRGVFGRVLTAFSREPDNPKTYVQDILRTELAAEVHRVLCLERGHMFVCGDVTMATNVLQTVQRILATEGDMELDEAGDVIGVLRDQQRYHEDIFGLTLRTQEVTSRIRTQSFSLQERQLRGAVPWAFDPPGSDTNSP
B2: Mothers against decapentaplegic homolog 4 (Homo sapiens), Q13485 (parent)
chain: B1 chain
partner: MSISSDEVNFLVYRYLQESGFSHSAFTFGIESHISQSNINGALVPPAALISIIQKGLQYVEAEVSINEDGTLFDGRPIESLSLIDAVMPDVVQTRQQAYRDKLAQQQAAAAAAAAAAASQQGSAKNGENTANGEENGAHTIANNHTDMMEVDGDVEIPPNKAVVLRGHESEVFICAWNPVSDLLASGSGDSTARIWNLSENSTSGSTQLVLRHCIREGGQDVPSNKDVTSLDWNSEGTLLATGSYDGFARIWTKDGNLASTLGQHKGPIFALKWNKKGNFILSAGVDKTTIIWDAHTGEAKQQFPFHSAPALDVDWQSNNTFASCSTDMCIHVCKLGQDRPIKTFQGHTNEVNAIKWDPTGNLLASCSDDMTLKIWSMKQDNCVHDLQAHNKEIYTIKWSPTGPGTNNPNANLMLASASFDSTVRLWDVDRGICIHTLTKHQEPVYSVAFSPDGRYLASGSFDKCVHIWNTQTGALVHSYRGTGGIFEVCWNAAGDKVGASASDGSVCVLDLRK
B3: Mothers against decapentaplegic homolog 4 (Homo sapiens), Q13485 (parent)
chain: B1 chain
partner: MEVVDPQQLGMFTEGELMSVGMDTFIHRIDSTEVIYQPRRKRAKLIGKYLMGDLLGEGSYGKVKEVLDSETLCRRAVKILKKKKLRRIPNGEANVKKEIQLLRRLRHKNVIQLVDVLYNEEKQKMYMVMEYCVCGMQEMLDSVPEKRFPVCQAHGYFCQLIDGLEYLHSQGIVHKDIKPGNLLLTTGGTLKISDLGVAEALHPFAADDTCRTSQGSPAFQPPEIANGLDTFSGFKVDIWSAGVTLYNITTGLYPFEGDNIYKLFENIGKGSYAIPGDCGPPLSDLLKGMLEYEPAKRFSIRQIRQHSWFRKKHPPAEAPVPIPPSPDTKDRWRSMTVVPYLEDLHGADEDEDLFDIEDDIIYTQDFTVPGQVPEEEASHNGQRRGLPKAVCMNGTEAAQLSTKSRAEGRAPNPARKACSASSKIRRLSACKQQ

Variants of: B1
Conditions: with nos3_human NOS3, P29474

For R361H, which “effect of a mutation on the interaction” value is on record?
Its value is “with no effect”.

Variants of: B1
Conditions: with nos3_human NOS3, P29474
Remark: another data set of the same source

G386D was tested. Which “effect of a mutation on the interaction” value did it give?
The value was “with no effect”.

Variants of: B1
Conditions: with nos3_human NOS3, P29474
Remark: another data set of the same source

With G386D as the variant, how does the “effect of a mutation on the interaction” value read?
Its value is “increasing interaction strength”.

Variants of: B2
Conditions: with tbl1r_human TBL1XR1, Q9BZK7

For G386D, which “effect of a mutation on the interaction” value is on record?
Its value is “with no effect”.

Variants of: B3
Conditions: with stk11_human STK11, Q15831

Which “effect of a mutation on the interaction” value does the source give for G386D here?
The value was “with no effect”.

— IntAct's records for PubMed 35512704
